In PMC10866564 (Science Advances, 2024):
Where a chain is given by its changes, count along the chain named. In names and notes the source's numbering stands.

Legend:
Assay in all cases: SEC-MALS
6×His-SYP-3 (C. elegans) = 6×His-SYP-3 (C. elegans) (UniProt O62238)
SEC-MALS = target: the molecule itself
6×His-SYP-3 = target: T1, 6×His-SYP-3 (C. elegans, UniProt O62238 1-224)
T1 sequence: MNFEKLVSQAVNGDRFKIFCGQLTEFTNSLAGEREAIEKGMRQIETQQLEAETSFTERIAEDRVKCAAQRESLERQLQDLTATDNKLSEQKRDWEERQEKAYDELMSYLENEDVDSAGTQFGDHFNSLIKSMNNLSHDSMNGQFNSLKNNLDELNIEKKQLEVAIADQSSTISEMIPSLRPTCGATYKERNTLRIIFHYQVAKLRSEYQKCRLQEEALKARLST

Q: How did the stoichiometry N (copies of each protein in the complex) (6×His-SYP-3 (C. elegans)) turn out when “SYP-1 (recombinant, untagged) (natural protein)” was run?
A: 4

Q: With “SYP-5 (recombinant, untagged) (natural protein)” as the molecule, how does the stoichiometry N (copies of each protein in the complex) (6×His-SYP-3 (C. elegans)) read?
A: 4

B1: 6×His-SKR-1^WT (natural protein)
chain: MADQKKVSEAAKEREIKISSSDNEIFLVPRNVIRLSNTINTLLMDLGLDDEEGTNAEPIPVQNVTASILKKVISWCNHHHSDPISTEDSDNREKRTDDIGSWDVEFLKVDQGTLFELILAANYLDIKGLLDVTCKTVANMIKGKSPEEIRRTFNIKNDFTPEEEEQIRKENAWCED
Q: For B1, which “stoichiometry N” value (SEC-MALS) is on record?
A: 2

B2: 6×His-SKR-1^I155A,W173A (natural protein)
chain: B1 chain with I155A, W173A
Q: How did the “stoichiometry N” value (SEC-MALS) turn out when B2 was run?
A: 2

B3: SKR-1 (recombinant, untagged) (natural protein)
chain: B1 chain
Q: For B3, which “stoichiometry N” value (6×His-SYP-3) is on record?
A: 4 copies of each protein in the complex

B4: SYP-4 (recombinant, untagged) (natural protein)
chain: MSFPTLQVRPNEKNPKVLRCHEFLRQSNQLVERNMINTEGRKMLAKLLTKMVSEAKGIYALDERRAELAKSGKLQEKLKSAYQTSLTVMEDRLHIAELSRQVQEKKLTVQQKYYECDDLRKSVQETNTEARRVQEINEQRLVDTTRATEELIVKSASILKNLENSSDVHKLRAMEEEKRILEEVVEGLRDQKKCLADDIRTKKATLKAESKKSFEKTVIECAKHYKLHQSLMPKLDKSKRSLETLKDEEENRRICGSLSLDETMQFDRSFILASMDKTNKPEKAVQQLTSKSSEVSITPQISETAKSSFSKEPIPTQHPMEVGEEPVIEHSAEESVHIEPPNVTEIREVVPQITIQPTRQDSVVQRDAEELDTSAVPSPQPESILDEPEEEEEELSNHENHADQSMDVMEVDQEVPEESPMEVGEQEEIEQPSVFKDILATEQAALSQEQEPEIVEKQADNDVQFVDDQQVGAQLDVEDEEEVMSENGSNKSNNFSFNFFGNSKGTSAGEGGGEGNFDFNFDGIGAGDDGSNNGGSTGDLDFLNYDGEDEGKGSGNTQSDPFGFASNGNAAGGGGDGSFNFNFDGDGEGGATSGAGGNSTSFFNF
Q: B4 was tested. Which “stoichiometry N” value (6×His-SYP-3) did it give?
A: 4 copies of each protein in the complex

B5: SYP-2 (recombinant, untagged) (natural protein)
chain: MNSAHRSSLKKRPGPQDDRRVSFASPVSSSQKTAAVTVAAQTKQPAKAKNLRTMHSTPKKSKPAHDVADIISLVSKQSDILDDVSEIEHKMIKQAKMTQDLTMELANSIERIANMALAESKLSDQMEKQSKKLISLEGKTKELVEKANNWSKTLENRVDARSHHSTCLNDVQAAIKIINNAKINNDGFSEDFSAHYDKLLDLVETLEPWADKL
Q: Which “stoichiometry N” value (6×His-SYP-3) does the source give for B5 here?
A: 4 copies of each protein in the complex
